From the supplement of paper PMC12042874
± gives the uncertainty stated by the source.

test: amyloid nucleation score (Sup35N fusion, yeast selection) (log enrichment); library NNK2; higher = more nucleation; inactive = no reads after selection
Procedure, shortened: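 The nucleation score equals the log enrichment of output over input reads from DiMSum, centred on the mode score of non-aggregating sequences. It was computed only for sequences with 100 or more input reads. The reads came from Illumina sequencing of plasmid inserts from psi-negative yeast expressing Sup35N fused to peptides of 20 random codons, induced with 100 μM copper sulfate for 24 hours and grown 7 days at 30°C without adenine and uracil.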

| Substance | amyloid nucleation score |
| --- | --- |
| RFFSMVTR | 0.025 ± 0.33 |
| YTAIVRFWWVTQSVQFKNRD | -0.143 ± 0.8 |
| KSKLRCTFYSDAL | -0.219 ± 0.27 |
| YVLGVF | 0.045 ± 0.79 |
| RVHRLQTEEVMYSSGSK | 4.96 ± 0.065 |
| SKNDCRVFPSDMHFWHDLVE | 0.351 ± 0.44 |
| LCNGGWIIRRADVSGVTNVE | -0.09 ± 0.24 |
| SCRLFVLYALLFGLSVGCVL | inactive |
| LFADGFGSRINDCNTVSMF | 0.881 ± 0.47 |
| RISECAIYARTGSYMSMRRR | 4.08 ± 0.051 |
| LMVKSDTCLLSLLSPTPFRR | 3.67 ± 0.1 |
| CDRLSVNHFKEAGVQGSLSE | 0.851 ± 0.21 |
| EGTFGAPFVTSLLSLRFECV | -0.85 ± 0.63 |
| EFNLLRYSVETNIISEKKLV | 0.129 ± 0.54 |
| SSYRRLTQSTLRVDRHRLFY | 0.732 ± 0.4 |
| WFPRSNAYLCMCFFVLREYQ | 0.428 ± 0.66 |
| FFFVPSFDTLEHTLRVGLLR | inactive |
| EIIYSQSDSVYGCGGY | inactive |
| TIYRSSSNNSQEHSLNLMFG | inactive |
| ISPIVEIGRASTVTLSDISV | 4.71 ± 0.054 |
| GHMVYRTNVGRSV | 0.187 ± 0.74 |
| FRGLVILNRNGVCDILEYGC | -0.58 ± 0.27 |
| VFAGFACFHIIN | 5.843 ± 0.044 |
| LMSQGCRGRLLL | -0.356 ± 0.64 |
| NRKCSAESMTEGVRPLDSHY | inactive |

| Substance | amyloid nucleation score |
| --- | --- |
| RGKFHCFL | -0.599 ± 0.41 |
| IPKHLSSSVYAYYDLRLVFV | 0.08 ± 0.22 |
| DSLPSRNSNIGWIQWILWGI | -0.121 ± 1.1 |
| WGIWFKPALFRNLYTIFAWL | inactive |
| ISVRVFNRNT | 3.15 ± 0.078 |
| HLEPRIPLWMPVFGVSKVRS | 2.7 ± 0.12 |
| IFDCCY | -1.82 ± 1.1 |
| GLRHGLCRSLLY | -0.642 ± 1.1 |
| TPLLSWVTLFCCLGSPCLGT | 0.176 ± 0.76 |
| IWFSWAVCFMITFHSHTHWW | 0.598 ± 0.57 |
| FRVDYKMKCAFASHFSNSFY | inactive |
| FHVCWERSMLIRV | -0.559 ± 0.76 |
| RALCTKVRTLLCFYLGVLWS | 0.903 ± 0.74 |
| SGNGLLMCPMGSRTGRLFHR | 3.54 ± 0.061 |
| LKKFVPPELRSADVDRKCSK | inactive |
| YNARFSTNLTRFGVGF | -1.15 ± 1.1 |
| DMWTSFWSCSTYRKEYFTRC | 1.25 ± 0.11 |
| SRWLSQSPDHSWGGQTYGMS | -0.023 ± 0.63 |
| GLHSGNFTACICM | 8.731 ± 0.055 |
| FWVRNVDTLWLSPRYVTWSG | -0.323 ± 0.33 |
| GFKAMRCLWSGVARSIVRDS | -0.242 ± 0.49 |
| WLRNWGYAFGPRQNYNCCRV | -0.569 ± 0.49 |
| FSFNIPQFINV | inactive |
| NQQPKSLLYVSRRMQGTMIF | 0.089 ± 0.8 |
| MYLRYSFLIISCELGDLNSL | inactive |

| Substance | amyloid nucleation score |
| --- | --- |
| KAIFSCDARFVRWNAHNREC | inactive |
| FRFTQDMDFRAQFDELSWRL | 2 ± 0.28 |
| GYMSYT | -0.863 ± 0.32 |
| TVDNPSNSFTFFRVYQLYVR | 3.11 ± 0.14 |
| RTCTNYVMINETVVR | inactive |
| NTELSVMPGRLSNFIKLNVT | -0.248 ± 0.65 |
| CYRHVLFKATLKWCNFAVFI | 7.383 ± 0.046 |
| AVVTPKMIMMGWTEGGINVR | -0.864 ± 0.76 |
| LYEMVVM | 0.05 ± 1 |
| KCIAGMSWCEH | 0.252 ± 0.2 |
| IYFESPPTRWGGYVADNCEY | -1.36 ± 0.76 |
| CHNYELCCRLFNSFSTNQIA | -0.468 ± 0.29 |
| RISDDWVYLLCSCKGQGFLW | 0.157 ± 1 |
| VAMVLLC | 1.03 ± 0.21 |
| VVNSVVPKRSRLCHFYFTGM | -1.02 ± 0.63 |
| SLNLGRLYDLSMMLAWLGHQ | 2.16 ± 0.17 |
| MMLNSINLKYLIWLCN | 2.73 ± 0.06 |
| SCFVLLSSVDSLCMQDHF | 0.311 ± 0.43 |
| SFIVQHE | 0.16 ± 0.55 |
| PCRVYHLCNYKLAWRKGGWL | 0.927 ± 0.2 |
| DYVSGYRVGQFVMLLGRLRN | -0.205 ± 0.55 |
| ENGRYHFFKAEHWFCRLMMM | inactive |
| MISYYLMSIYS | 4.58 ± 0.065 |
| EMSRMASNISRMKVSRASKH | 1.15 ± 0.38 |
| LDNACSQGGGDFRLSLS | -0.773 ± 0.55 |

| Substance | amyloid nucleation score |
| --- | --- |
| FYFDGQLV | -0.743 ± 0.76 |
| VFIGQQDHINP | 0.363 ± 0.65 |
| QLAYNEDMSVVGFCYIWYYG | 6.456 ± 0.048 |
| GILNRTRPFR | -0.595 ± 0.28 |
| RCPLHPLGGLYTIWSDYLRL | 5.82 ± 0.075 |
| RVSIVCWIFVDSREHFFSVK | -0.818 ± 0.55 |
| NLWRLISNLIDVMHPMYSTE | -0.089 ± 1.1 |
| LGRQWFRIARGG | 0.654 ± 0.32 |
| CYRVVTLFNFK | 6.178 ± 0.029 |
| QTRRIRYDWDAPQCGWVVTM | 3.82 ± 0.079 |
| GNRYSLCEAYATYLFSLDWY | inactive |
| AFRSSSPSRVHELRQMKELV | 1.14 ± 0.3 |
| YFYLFYCEIRVPTELYLNMP | 3.15 ± 0.06 |
| ERDGSIMCSWTVSEHKSCGY | inactive |
| DNILICMYGDVYMGCYCQAI | 8.632 ± 0.05 |
| VNGPEDPPVHKLMKSTRRSC | 2.79 ± 0.088 |
| CILLPKVSCCCKGLICCDFV | 0.186 ± 0.34 |
| PKIMKFGKCYTP | 0.065 ± 0.28 |
| MLNLVATVLWDWSVDCSWQV | 1.5 ± 0.11 |
| AFHWMF | 0.544 ± 0.28 |
| TFFYYYCMCSRTL | 7.83 ± 0.061 |
| LAGLYYVGVVENGMDMQDRK | -0.329 ± 0.29 |
| PRVRSAVQSLRGVKYCLGRR | -0.531 ± 0.63 |
| VRTLGGL | -0.653 ± 0.33 |
| TQIFYSLRILLVDKLVSCGA | -0.787 ± 0.39 |

| Substance | amyloid nucleation score |
| --- | --- |
| KCFKVRTDLWRSC | 1.38 ± 0.53 |
| LADQSYKPAWLFPGSTSVLV | 0.078 ± 0.74 |
| VYKQVRNKVCSYLSLTERRW | 0.654 ± 0.57 |
| INGCFDHPTSIETFSEEMWM | -0.533 ± 0.55 |
| RFRFYYCLDCSHL | inactive |
| VFLFDLGYQGR | 6.67 ± 0.073 |
| TIPVRPTMEYCTQLLTLLQ | 0.293 ± 0.47 |
| RHVCYGGQYLVANHSGM | -0.267 ± 0.65 |
| VYTTDLPFIYVLSVFMFIHG | -0.447 ± 0.27 |
| AWRVRTLQGFYGSDAWQSHD | -0.237 ± 0.79 |
| FYIGILGDLWWRRR | 1.15 ± 0.57 |
| SSAFFSFNWADKWCMLMCLV | -1.41 ± 1.1 |
| CSFSADCVSRSGGRSFSP | -0.834 ± 0.63 |
| FRSMFISWVM | -0.271 ± 1 |
| NDYLFIFHLFCLVSCLMNKW | -0.228 ± 1.1 |
| VGLCVLFRWLHKTWMMEWLG | 0.426 ± 0.35 |
| TYEMSVVGVEWWVTGQLTIC | 1.68 ± 0.38 |
| CIYKS | -1.36 ± 0.75 |
| VAHKSPFIAHFTWVILAYGM | 0.211 ± 0.61 |
| LTYYLRSFVIPSWG | inactive |
| HIRLRY | -0.101 ± 0.8 |
| GNVECS | -0.463 ± 0.45 |
| SLFFFR | 5.03 ± 0.06 |
| NMCQPMCVIVDWIIFISCVG | 2.49 ± 0.063 |
| CMPPRLWMW | -0.137 ± 1.1 |

| Substance | amyloid nucleation score |
| --- | --- |
| IYCVRQSDGQYSSEMAHYII | 2.64 ± 0.094 |
| RRVDWDYLPLFMQAAPYSWK | -0.197 ± 0.22 |
| SLSYATTFF | 0.476 ± 0.24 |
| HCMYDWMNRSMGLVFDCLFL | -1.04 ± 1 |
| GNNGRFSWVY | 0.556 ± 0.37 |
| ASLIRGATKGQTVCEMALSG | -0.07 ± 0.27 |
| FAVNDCILCCRRSHWVLPYW | -0.334 ± 0.63 |
| VIRVLSMLFFSRVLVPVNSK | 0.151 ± 0.62 |
| KGKTLLYSAKHIVFNR | 0.482 ± 0.3 |
| RWATVLLDPF | -0.299 ± 0.79 |
| NSVTNNIRSWIPHLDKGYGG | -0.487 ± 1.1 |
| TNWVDWESYISCGGNGFGGC | -0.92 ± 0.39 |
| SNGINN | inactive |
| SSCRTSSWLALVWFGLGVSG | 0.177 ± 0.19 |
| CTIVYF | 1.13 ± 0.27 |
| IAICVNARE | 0.838 ± 0.35 |
| SCHVFFVTIEGNASSANGHR | 8.14 ± 0.07 |
| SLSKKMFRCRS | 3.4 ± 0.12 |
| TVSQFLFN | -0.559 ± 0.76 |
| LCDPLLVKNCRLRLTVLWGM | -0.057 ± 0.63 |
| TCSGLCYIHWACIIGKDNYM | 4.9 ± 0.087 |
| TVGLIRLRLSILYFGPLDSV | 0.115 ± 0.56 |
| VIFYRSFTVS | 3.64 ± 0.053 |
| NAYLFMFFRRGLWFSVLPFV | -1.09 ± 1.1 |
| CLSCGLRTEDLYWDTRICSD | 1.18 ± 0.29 |

| Substance | amyloid nucleation score |
| --- | --- |
| YSPSRVS | -0.493 ± 0.48 |
| TVFVWKPRVGKN | 4.716 ± 0.044 |
| VHDRLRLGWGAYGYPFGVLM | 0.027 ± 1 |
| IKYSVVNRHRVGLSVTAKW | -0.205 ± 0.37 |
| GMWRIPYGWGPCYHSCVNQG | 4.958 ± 0.047 |
| YVSSVAIAFGLSVGLAYYPP | 5.26 ± 0.059 |
| NSWASPTVVFIRPVHMLLVL | 0.158 ± 0.25 |
| FHTLRVE | 1.46 ± 0.3 |
| LGMSGCVCSYVYLRGFGLIL | -0.658 ± 0.37 |
| RSKFLFYIYSGFEIRRKINT | inactive |
| NAYLVSRVIKLIVLSKWYRY | 0.689 ± 0.57 |
| RKEIRGLTMTRPIVDPMRTK | 0.932 ± 0.81 |
| IPFQEWNSMFIKLSELTVES | 3.97 ± 0.058 |
| CLVDGLANVHVYRENLGF | -0.841 ± 0.29 |
| IYYRVWMSFSFRG | -0.717 ± 0.37 |
| SAFYKQCEWFFNLMANSLCG | -0.021 ± 0.63 |
| TVFFGLVCRGPVKKDM | 2.1 ± 0.17 |
| ACNVILCVTNPTHNVIV | 9.254 ± 0.036 |
| VCGWFHGHWGTWWDVQQRKR | 2.3 ± 0.16 |
| KSASCKPIMSYPKVLPS | 0.208 ± 0.8 |
| MGNSYIEVRSLYR | -0.578 ± 0.64 |
